Source: the nanobody polyreactivity screen of Harvey et al. (2022)

Assay: yeast display, Sf9 membrane polyspecificity reagent, FACS + sequencing; frameworks hold sequencing errors
In short: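 Genes from sorted yeast were amplified by colony PCR, read by MiSeq 2 × 250 sequencing and filtered on CDR length. These cells carried a synthetic nanobody library in Saccharomyces cerevisiae BJ5465 and were sorted by FACS into low and high (top ~1%) gates on anti-HA and streptavidin fluorescence. Polyreactivity is labelled according to the gate of origin.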

| Sequence | polyreactivity (PSR sort gate) |
| --- | --- |
| QVQIVESGAGIVQAGGSLRLSCAASGFIFDIYAMGWYRQAPGKERELVASITWDDGSTYYADSVKGRFTISRDNAKNTVYLQINSLKPEDTAVYYCAADFEAGGYSLDYWGQGTQVTVSS | low polyreactivity |
| QVQLVESGGCLVQAGGSLRLSCAASGRTFRVNAMGWYRQAPGKEWELVAAITWRGGSTYYADSVKGRFTISRDIAKYTVYLQMNSLKPEDTAVYYCAARYSSSSRRQKSDYWGQGTQVTVSS | high polyreactivity |
| QVQLVESGGGLVQAGGSLRLSCAASGSILEYYAMGWYRQAPGKERELVAGISSAGNTYYADSVKGRFTISRDNAKNTVYLQMNSLKPEDSAVYYCAAVPWSGEYDYWGQATQVTVSS | low polyreactivity |
| QVQLVESGGGLVQAGGSLRISCAASGSIFWDNVMGWYRQAPGKERELVADIDSWDGGSTYYADSVKGRFTISRDNAKNTVYLQMNSLKPEDTAVYYCNTDVLWWRGGDDYWGQGTQVTVSS | low polyreactivity |
| QVQLVESGGGLVQAGGSLRLSCAASGIIFSYYARGWYRQAPGKDRELVAAISSSGVSTNYADSVKGRFTISRDNAKNTVYLQMTSLKPEDTAVYYCAADYGSWSNWGYEYWGQGTQVTVSS | high polyreactivity |
| QVQLVESGGGLVQAGGSLRLSCAASGFIFSSYAMGWYRQAPGKERELVAAISRGGSTYYADSVKGRFTISRDNAKNTVYLQMNSLKPEDTAVYYCNARRYRHDGYWGQGTQVTVSS | high polyreactivity |
| QVQLVESVGCLVQAGGSLRLSCAASGFNFGYNAMGWYRQAPGKERELVAAITWIGGTTYYADSVKGRFTISRYNAKYTVYLQMNILKPEDTAVDYCNALRRGVRDPYGYWGLGTQVTVSS | high polyreactivity |
| QVHLVDSGGGLVQAGGSLRLSCAASGSTIRYYAMGWYRQAPGKEREMVAAITSSGTSTYYADSVKGRFTISRDNAKNTVYLQMNSLKPEDTAVYYCAAPPVYKWVSSRYDYWGQGTQVTVSS | low polyreactivity |
| QVQLVESGGGLVQAGGSLRLSCAASGSTFAGYAMGWYIQAPGKERELVASIRSGGSTNYADSVKGRFSISRDNAKNTVYLQMNSLKPEDTAVYYCAARPDQKRYDYWGQGTQVTVSS | low polyreactivity |
| QVQLVESGGGLVQAGGSLRLSCAASGSTFYYYAMGWYRQAPGKERELVATISSGSSTNYADSVKGRFTISRDNAKNTVYLQMNCLKPEDTAVYYCAADRWYITLSIDATISYDYWGQGTQVTVSS | low polyreactivity |
| QVQLVESGGGLVQAGGSLRLSCAASGSIFYYNALGWYRQAPGKERELVAVISYRSGRTSYADSVKGRFTISRDNAKNTVYLQMNSLKPEDTAVYYCNAKPAVSFSRHYYRYDYWGQGTQVTVSS | high polyreactivity |
| QVQLVESGGGLVQAGGSLRLSCASSGLTFGGYTMGLSRQAPGKERELVAAITSGGSTYYADSVKGRFTISRDNAKNTVYLQMNSLKPEDTAVYYCAARVRGWPVSKFGYWGQGTQVTVSS | high polyreactivity |
| QVQLVESGGGLVQAGGSLRLSCAASGSTFFTNAMAWYRQSPGKERELVASISFSGGRTYYADSVKGRFTISRDNAKNTVYLQMNSLKPEDTAVYYCAARRYRYTRYDYWGQGTQVTVSS | high polyreactivity |
| QVQLVESGGGLVQAGGSLRLSCAASGITFYLYAMGWYRQAPGKERELVAAISSSGGSTYYADSVKGRFTISRDNAKNTVYLQMNSLKPEDTAVYYCNASRRTVPYRYDYWGQGTQVTVSS | high polyreactivity |
| QEQLQESGSGLVQAGGSLRLSCAASGNIFQDWVMAWYRQAPGKERELVAAISPGAITYYADSVKGRFTISRDNAKNTVYLQTNSLKPEDTAVYYCAAYYIVEYLHGYWGQGTRVTVSS | low polyreactivity |
| QVQLVESGGGLVQAGGSLRLSSAASGFIFDGNAMGWYRQAPGKERELVAAIRSGGRTNYADSVKGRFTISRDNAKNTVYLQMNSLKPEDTAVYYCAARSIYPYYYRRDNRYYYWGQGTQVTVSS | high polyreactivity |

| Sequence | polyreactivity (PSR sort gate) |
| --- | --- |
| QVQLVESGGGLVQAGGSLRLSCAASGFTFWGNAMGWSRQAPVKERELVAAISRSGGRTYYADSVKGRFTISRDNAKNTVYLQMNSLKPEDTAVYYCDAGSSHHFDYEGGYWGQGTQVTVSS | low polyreactivity |
| QVQLVESGGGLVQAGGSLRLSCAASVSIFYPYAMGWYRQAPGKERELVAAIRWSGGRTYYADSVKGRFTISRDNAKNTVYLQMNSLKPEDTAVYYCAADGQVSGYDYWGQGTQVTVSS | high polyreactivity |
| QVQLVESGGGLVQAGGSLRLSCAASGRIFPNNAMGWYRQAPGKERELVAAITSIGGSTYYADSVKGRFTISRDNAKNTVYLQMNSLKPEDTAVYYCAARWERFVPTGRFSYYYYYWGQGTQVTVSS | high polyreactivity |
| QVQLVESGGGLVQAGGSLRLSCAASGFIFISNAMGWSRQAPGKERELVARISDTDRTHYADSVKGRFTISRDNAKNTVYLQMNSLKPEDTAVYYCAAYDYNAIEYGYWGQGSQVTVSS | low polyreactivity |
| QVQLVESGGVLVQAGGSLRLSCAASRGIFSGYAMGWYRQAPGKERELVASITRRGSSTYYADSVKGPFTISRDSAKNTVYLQMNSLNPEDTAVYYCHAVLRYHVLYRGYDYWGQGTQLTVSS | high polyreactivity |
| QVQLVESGGGLVQAGGSLRLSCAASGSTFKTYVMGWYRQAPGKERELVAGISDSGGTTYYADSVKGRFTISRDNAKNTVYLQMNSLKPEDTAGYYCAAVLYRRYTRARLDYWGQGTQVTVSS | high polyreactivity |
| QVQLVESGGGLVQAGGSLRLSCAASGSIFVNYAMGWYRQAPGKERELVAAISWRGGITYADSVKGRFTISRDNAKNTVYLQLNSLKPEDTAVYYCARRGYGAGPSYRLGDYWGQGTQVTVSS | low polyreactivity |
| QVQLVESGGGLVQAGGSLRLSCAASGSTFAQYAMGWYRQAPGKERELVAAISRGGGSTYYADSVKGRFTISRDNAKNTVYLQMNSLKPEDTAVYYCNARTSHYDKYGYWGQGTQVTVSS | high polyreactivity |
| QVQLVESGGGLVQAGGSLRLSCAASGSIFPYNAMGWYRQAPGKERELVATISSGGSTNYADSVKGRFTISRDNAKNTVYLQMNSLKPEDTAVYYCAADVIVFYYAPNYWVDIEYGYWGQGTQVTVSS | low polyreactivity |
| QVQLVESGGGLVQAGGSLRLSCAASGRTFGQNAMGWYRQAPGKERELVASIRSGGITDYADSVKGRFTISRDNAKNTVYLQMNSLKPDDTAVYYCNAEGVWWSTRYDSWGQGTQVTVSS | low polyreactivity |
| QVQLVESGGGLVQAGGSLRLSCAASGSTFWANALGWYRQAPGKERELVAGITWNAGSTYYADSVKGRFTISRDNAKNTVYLQMNSLKPEDTGVYYCAAYYHFQGWGPGYNSWGQGTQVTVSS | low polyreactivity |
| QVQLVESGGGLVQAGGSLRLSCAASGIIFYKYAMGWYRQAPGKERELVAAITSGGGRTYYADSVKGRFTISRDNAKNTVYLQMNSLKPEDTAVYYCNADTYSAGDYWGQGTQVTVSS | high polyreactivity |
| QVQLVESGGGLVQAGGSLRLSCAGSGSIFGEYVMGCYRQATVKERELVADISWRDGDTYYADSVKGRFTISRDNAKNTVYLQMNSLKPEDTAVYYFAADVIVPESYGYWPLSYYYLGQGTQVTVSS | low polyreactivity |
| QVQLVESGGGLVQAGGSLRLSCAASGRTFWKYAMGWYRQAPGKERELVAAITASGARTYYADSVKGRFTISRDNAKNTVYLQLNSLKPEDTAVYYCNAGSVSDRQMDYWGQGTQVTVSS | low polyreactivity |
| QVQLVDSGGGSVQAGGSLRLSCAASGSTFYENAMGWYREAPGKETELVAASTWSGGRTYYADSVKGRFTISRDNAKNTVYLQMYSLKPEDTAVYYCNARARSRKFYYWGQGTQVTVSS | high polyreactivity |
| QVQLVESGGGLVQAGGSLRLSCAASGSIFDLNAMGWYRQAPGKERELVAAISSGGGTYYADSVKGRFTISRDNAKNTVYFQMNSLKPEDTAVYYCNRVTRWTYNYWGQGTQVTVSS | high polyreactivity |
